These results are taken from patent US20250270315A1 (ELPISCIENCE SUZHOU BIOPHARMA, published 2025).

By Kd is commonly meant the constant that tells how readily two partners part at equilibrium. By koff is commonly meant the rate constant with which the complex falls apart. High values mean fast dissociation, low ones slow dissociation. What is called kon is the second-order rate constant of association. Low values mean slow association, high ones fast association. One may read the EC50 (read off the curve) as the midpoint of the concentration-response curve.

For assay [1], the target named is Human SIRPα v1 (antigen of the Octet and Biacore affinity measurements) (human, UniProt P78324 31-370, limits assumed). In words: BLI (Octet), 1:1 binding model. Here is the method:
The purified chimeric antibodies were characterized for binding affinity against human SIRPα v1, human SIRPα v2 using Bio-Layer Interferometry technology (Octet system). The association and dissociation curves were fit with 1:1 binding model, and the Ka/Kd/KD values for each antibody were calculated.

In assay [2] the target is T1, human SIRPβL ECD recombinant protein (6×His tagged) (human, UniProt Q5TFQ8 30-371).
T1 construct: given variously as SIRPBL, SIRPBI and SIRPβI; Bought from Biointron; also called human SIRPBL ECD; human SIRPBI ECD
The assay is described as follows: ELISA, recombinant human SIRPβL (SIRPβI) ECD. The text has this:
Binding activity of the purified chimeric antibodies against SIRPβ and SIRPBI was detected by ELISA assay using recombinant proteins of human SIRPβ ECD (FIGS. 3A and 3B), human SIRPBI ECD (FIGS. 3D and 3E) and FACS assay using CHOK 1 cells stably expressing human SIRPB (FIG. 3C).

Human SIRPα v1 (antigen of the Octet and Biacore affinity measurements), sequence (P78324 31-370 limits assumed): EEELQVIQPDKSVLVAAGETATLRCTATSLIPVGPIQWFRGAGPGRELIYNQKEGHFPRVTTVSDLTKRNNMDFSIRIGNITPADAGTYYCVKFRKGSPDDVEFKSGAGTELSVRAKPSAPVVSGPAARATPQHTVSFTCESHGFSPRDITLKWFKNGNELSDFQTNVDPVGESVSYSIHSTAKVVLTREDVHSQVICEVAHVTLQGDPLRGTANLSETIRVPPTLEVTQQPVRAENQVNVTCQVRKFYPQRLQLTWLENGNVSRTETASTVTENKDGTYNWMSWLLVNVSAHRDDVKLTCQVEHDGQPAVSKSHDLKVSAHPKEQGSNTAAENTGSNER
T1 sequence (Q5TFQ8 30-371 limits assumed): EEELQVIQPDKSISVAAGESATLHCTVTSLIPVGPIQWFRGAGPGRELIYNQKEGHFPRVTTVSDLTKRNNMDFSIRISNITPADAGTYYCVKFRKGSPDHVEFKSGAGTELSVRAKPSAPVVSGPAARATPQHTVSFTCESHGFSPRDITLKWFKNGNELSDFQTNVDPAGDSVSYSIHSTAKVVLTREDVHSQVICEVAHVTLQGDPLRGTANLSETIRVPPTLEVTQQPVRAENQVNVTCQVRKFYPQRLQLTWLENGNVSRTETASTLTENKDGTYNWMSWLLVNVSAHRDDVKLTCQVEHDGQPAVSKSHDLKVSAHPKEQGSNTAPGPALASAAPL

B1: 025c (antibody, V domains shown)
VH: EVQLQQSGAELVKPGASVKLSCTASGFNIKDYYMHWVKQRTEQGLEWIGRIDPEDGETKYAPKFQGKATITADTSSNTAYLQLSSLTSEDTAVYYCDRGLAYWGQGTLVTVSA
VL: QIVLTQSPAIMSASPGEKVTLTCSASSSVSSSYLYWYQQKPGSSPKLWIYSTSNLASGVPARFSGSGSGTSYSLTISSMEAEDAASYFCHQWSSYPYTFGGGTKLEIK
notes: also called chimeric antibody 025c; parental antibody of 025c
For B1, in assay [1], the affinity, expressed as Kd, was 2.46 nM; the koff stood at 0.00156 s⁻¹; the kon came out at 636000 M⁻¹ s⁻¹. In assay [2], the “EC50 (read off the curve)” value is ~0.4 nM.
